System: MS2 coat protein
Assay: apparent KD of MS2 coat protein; designed switch direction (-1 OFF switch, 1 ON switch): 1; higher = weaker reporter binding
Summary of the method: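 Designed RNA switches with common flanks were transcribed on Illumina chips by stalled E. coli RNA polymerase and titrated with SNAP-549-labelled MS2 coat protein, from 0.7 or 1.5 nM doubling to 3 µM, in Tris-HCl pH 7.5 buffer with KCl, MgCl2, BSA, DTT, tRNA and Tween-20. Steps lasted 0.8–1.5 h (lowest) to 10–20 min (highest). Titrations ran without input, with 200 uM small-molecule ligand, or with an oligonucleotide input. Normalised cluster fluorescence was curve-fitted, and apparent KD is the per-design median over clusters.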

[1] = Eterna round: R95, input ligand: FMN 200 uM
[2] = Eterna round: R95, input ligand: microRNA oligo, concentration not stated
[3] = Eterna round: R95, input ligand: none
[4] = input ligand: microRNA oligo, concentration not stated

Sequence | apparent KD of MS2 coat protein [1] | apparent KD of MS2 coat protein [2] | apparent KD of MS2 coat protein [3] | apparent KD of MS2 coat protein (input ligand: FMN 200 uM) | apparent KD of MS2 coat protein [4] | apparent KD of MS2 coat protein (input ligand: none)
GGUCCAGCCUGAGCUGGACCACAGCAUGUACAUGAGGAUCACCCAUGUCAUGUACAAGCUUUUUGUUUAAAAUAAAA [Sensorship 13 - Jieux - Sensor for hsa-mir-208a] (puzzle: Sensor for hsa-mir-208a) | 0.261 µM | 0.0305 µM | 0.209 µM |  |  | 
UUGCUCGUGUGAGGAUAUGCAGCCGUUUCGGCUGCAGAAGGUACUAUAAUACAUGAGGAUCACCCAUGUCUCUGUUGUUUUGUG [salish99_SSNG1_r04_929] (Eterna round: R96, puzzle: Same State NG 1) |  |  |  | 0.0269 µM | 0.0208 µM | 0.0254 µM
GUGGUCAGACAUGAGGAUCACCCAUGUGGAAUAAAUAAGGGUUAGGAUAUGCAAUAUAGGAUAUAGCAGAAGGGAUGGUUGGUG (Eterna round: R96, puzzle: Same State NG 3) |  |  |  |  | 0.0849 µM | 
GGUAAACAUGAGGAUCACCCAUGUAAUAUAAUGGGAGGAUAUCUGAAUUAAUUAAAUUAAGGAGAAGGCCUAAUGU [Mat - Same State 1 - Mod of Eli - D50] (puzzle: Same State 1) | 0.0655 µM | 0.462 µM | 0.41 µM |  |  | 
AAAAUACAUGAGGAUCACCCAUGUCUAAAGAACGGAGGAUAUAGGCGUACAAAACACGCACUAGAAGGCUGGGUGC [Tesoonge] (puzzle: Same State 1) | 0.151 µM | 0.116 µM | 0.155 µM |  |  | 
AGCUAUUAAUCAGGAUAUGGUCACAUGAGGAUCACCCAUGUGUAGAUGAUAAAAUGUGGUCUACACUAGAAGGGAUUGCUAACA [SameState NG2 #60] (Eterna round: R96, puzzle: Same State NG 2) |  |  |  | 0.524 µM | 0.216 µM | 0.236 µM
UUAAUGAUGUAAGGAUAUACAUGAGGAUUUCUCGUAGAAGGUACAGGACAUGAGGAUCACCCAUGUAUCGCUCCGUAGAGCGUA [JL SSNG1 1.11] (Eterna round: R96, puzzle: Same State NG 1) |  |  |  | 0.136 µM | 0.292 µM | 0.356 µM
UGGUACAUGGGAGGAUAUCUCAUGGUGACAUGAGGAUCACCCAUGUAGUUGGUGCCGAAAGGCUGAGAGAAGGCCCAUGUACCU [JL SSNG1 3.76] (Eterna round: R96, puzzle: Same State NG 2) |  |  |  | 0.0629 µM | 0.0593 µM | 0.0999 µM
GCUUCACAUGAGGAUCACCCAUGUCUUCGGAGUCGAGGAUAUGGUCACUGUAAACAGUGGCCAGAAGGCGAGGAGC [SS1 - Son of Teenbexe v7] (puzzle: Same State 1) |  | 0.0464 µM |  |  |  | 
AAAACACAUGAGGAUCACCCAUGUACCAGGUACAUAGGAUAUCCAGGCGCCAGAUGGCGCGGAGAAGGAUGGAAAA [Xeveoned] (puzzle: Same State 1) | 0.0908 µM | 0.162 µM | 0.251 µM |  |  | 
ACAUGAGACGGAGGAUAUGUUGUACCUACAUGUGACAUGAGGAUCACCCAUGUGGUAAGUAUGAUACAGAAGGCCGAGAUAUGU [Equivalance 58 - Jieux - Same State NG 2] (Eterna round: R96, puzzle: Same State NG 2) |  |  |  | 0.0136 µM | 0.0132 µM | 0.0189 µM
AUUGCUGUCACAGGAUAUCAUGCGGAAAUCGCGUGAGAAGGGUGGACUCUGUCAUUCACGGAGGACAUGAGGAUCACCCAUGUG [SS NG10LRO19] (Eterna round: R96, puzzle: Same State NG 1) |  |  |  | 0.0663 µM | 0.00878 µM | 0.0223 µM
AGUCCAGCGAAAGCUGGACAAAAGCAUGUACAUGAGGAUCACCCAUGUUCGUGUACAAGCUUUUUGCUCGUCUUAAA [JL mod - D95 - 5] (puzzle: Sensor for hsa-mir-208a) | 0.536 µM | 0.0146 µM | 0.554 µM |  |  | 
AACAAUCUAUCUGAGGAUAUCAUGAAAUAAACAUGAGGAUCACCCAUGUGCAUGAAAACUGCAUAUGAGAAGGCAGAUAGAUUGA [salish99_ss2_r3_038] (puzzle: Same State 2) | 0.0548 µM | 0.415 µM | 0.472 µM |  |  | 
UGUUGUAUUACAGGAUAUCUAUUAGUUUUAAUUAGAGAAGGGUAUUCACAUGAGGAUCACCCAUGUAUAUACGAGGAAGUUGUG [JMF's solution 98] (Eterna round: R96, puzzle: Same State NG 1) |  |  |  |  | 0.0338 µM | 
GCUGCAAGGGCAGGAUAUGGGUUCAGAGCGGAAGUGCGCUUUGAUACAUGAGGAUCACCCAUGUCCCAGAAGGGCCCAAACGGC [Beanti] (Eterna round: R96, puzzle: Same State NG 2) |  |  |  | 0.0173 µM | 0.0993 µM | 0.123 µM
CCUGCAAUUAACGCCUACAUGAGGAUCACCCAUGUAUGUAGGCAGGAUAUCGUUUGCUUUGCAAACGAGAAGGGCUGUAGUAGC [salish99_SSNG3_R04_002] (Eterna round: R96, puzzle: Same State NG 3) |  |  |  | 0.0187 µM | 0.0154 µM | 0.0189 µM
AAAAGUUGCGGGCAGGAUAUGUAUUAAAAUACAUGAGGAUCACCCAUGUGCGGGUAUAACACCCGACAGAAGGGCCAAUCGCGAC [Mat - Same State 2 - Mod of UCT - D95] (puzzle: Same State 2) | 0.0296 µM | 0.16 µM | 0.226 µM |  |  | 
GCGAGCGUACUUGCUACAUGAGGAUCACCCAUGUUCAUUGGACAGGAUAUGGUACCGUUUCGGUACCAGAAGGGUUCAUCAUGU [JL SSNG3 3.73] (Eterna round: R96, puzzle: Same State NG 3) |  |  |  | 1.19 µM | 0.0266 µM | 0.585 µM
UCUUGGUUUUUGCUCGUUUUUUGUGUUGAACAUGAGGAUCACCCAUGUAUUGUACAGUCCAAUUUAAUAAUGGUCCA [JMF 4] (puzzle: Sensor for hsa-mir-208a) | 0.0342 µM | 0.0279 µM | 0.0416 µM |  |  | 
UGUUGUAUUACAGGAUAUCUAUUAUUUUUGUUUAGAGAAGGGUAUUCACAUGAGGAUCACCCAUGUAUAUACGAGGAAGUUGUG [JMF's solution 24] (Eterna round: R96, puzzle: Same State NG 1) |  |  |  |  | 0.0376 µM | 
CGUCCGGCCUGUGCUGGCCGGUUGCUUGUACAUGAGGAUCACCCAUGUUCUUGUGCAGGCUUUUUGCUCGUCUUGUG [salish99_mir208a_018] (puzzle: Sensor for hsa-mir-208a) | 0.212 µM | 0.025 µM | 0.265 µM |  |  | 
CCGGCCACACAACAAGGCCAACAUGAGGAUCACCCAUGUACACAGGAUAUCGGCAGCCAAGGCUCCGAGAAGGGUGGUUCAAUU [Beage] (Eterna round: R96, puzzle: Same State NG 3) |  |  |  | 0.438 µM | 0.145 µM | 0.234 µM
AGAUCAUGACGAGGAUAUGGAACAUGAGGAUCACCCAUGUAUGUUCCAUAACGCGAAUGACGAAUCCAGAAGGCGUCGUGGUCA [JL SSNG2 1.10] (Eterna round: R96, puzzle: Same State NG 2) |  |  |  | 0.0156 µM | 0.112 µM | 0.168 µM
GUUAAACAUGAGGAUCACCCAUGUCAUCUAAGUCGAGGAUAUGGGAAUUAAUUAAUUAAACCAGAAGGCGAAAAUG [Mat - Same State 1 - D96] (puzzle: Same State 1) | 0.039 µM | 0.174 µM | 0.126 µM |  |  | 
AACAAGCACAUGAGGAUCACCCAUGUGAGAAUAAAACCCUCAUAGGAUAUCCGCGGUUAACUCCCGGAGAAGGGUGAGACUCCU [Edtiedus] (Eterna round: R96, puzzle: Same State NG 3) |  |  |  | 0.266 µM | 0.429 µM | 0.39 µM
UUGAAGAAUUAAGGAUAUUGAGUACAUAUGUAAAACAUGAGGAUCACCCAUGUGGGUUGCGGUAUCGAGAAGGUAAAUUAAUAG [Mat - same State NG 2 - JL mod - D70] (Eterna round: R96, puzzle: Same State NG 2) |  |  |  | 0.087 µM | 0.0676 µM | 0.0963 µM
UUUUUUUUUUAGAGACAAGCUUUUUGAUCACAUGAGGAUCACCCAUGUCUCGUCUUAUUUUUUUUUUUUUUUUUUUU [BA Sensor hsa-mir-208a - 2 - 4] (puzzle: Sensor for hsa-mir-208a) | 0.0373 µM | 0.0175 µM | 0.103 µM |  |  | 
